Data set [1] deals with T1, helicase domain of the NS3 protein (Hepatitis C virus genotype 1b, UniProt P26663, A1092G/F1173S/K1113A/P1112Q).
T1 construct: N-terminal end of the NS3 protease (NS3 amino acids 3-631) via the linker GSGS; histidine tag followed by a thrombin site (N); made in house; host or cells: E. coli BL21(DE3)
As to the kind of experiment: Autocleavage observed during purification. More on the design: species or system HCV. An excerpt: Also provided are NS4A-tethered forms of NS3 full-length domain. […] To prevent autocleavage of the full-length covalent complexes, the catalytic serine residue at position 139 is mutated to alanine. The amino acid sequence of one such embodiment is defined by SEQ ID NO: 15. The mutation of the full length constructs at position 139 can also be made in the NS4A-tethered forms of the NS3 catalytic domain, and can be made in combination with any of the aforementioned mutations to increase solubility and stability while preventing autocleavage. Representative embodiments are set forth in SEQ ID NOs: 5-8, 15-18 and 20.

Data set [2] concerns double stranded RNA substrate. In words: Nucleic acid unwinding activity, scintillation proximity assay. The class given is biochemical. The procedure: The newly engineered single-chain recombinant His-NS4A21-32-GSGS-NS33-631 (SEQ ID NO: 4) was assayed for nucleic acid unwinding activity using a scintillation proximity assay (SPA, Amersham Life Science Inc., Arlington Height, Ill.). The unwinding activity present in this covalent His-NS4A21-32-GSGS-NS33-631 complex was compared with that of the full length His-NS31-631-NS4A1-54 complex under their corresponding optimal buffer conditions. The double stranded RNA substrate (Oligos, Etc., Inc. Wilsonville, Oreg.) used in the assay contained a template 5′-GCUCGCCCGGGGAUCCUCUAGGAAUACACGUUCGAU-3′ (SEQ ID NO: 121) annealed to a primer 5′-CUAGAGGAUCCCCGGGCGAGCCCUAUAGUGAGUCGU-3′ (complementary sequences of the template and the primer are underlined). This substrate is end-labeled with ^33P using T4 polynucleotide kinase.
The assay conditions for the covalent His-NS4A21-32-GSGS-NS33-631 complex were 100 mM MOPS [pH 7.0], 0.5 mM MgCl2, 2 mM ATP, 0.5 mM DTT, […] BSA, 2% dimethylsulfoxide (DMSO) and 1 U RNase inhibitor (5 prime→3 prime, Inc., Boulder, Colo.). For the full length His-NS31-631/NS4A1-54 complex, the assay conditions were 100 mM PIPES [pH 6.0], 1 mM MgCl2, 2 mM ATP, 0.6 mM DTT, […] BSA and 1 U RNase inhibitor. In both reactions, 0.5 nM double stranded RNA substrate in a final volume of […] was used. The reaction was carried out at 37 ∞C. for 1 h and terminated by an addition of […] of 0.5 M EDTA. The released primer was captured using […] of 100 nM biotinylated capture oligomer (5′-biotin-GCT-CGC-CCG-GGG-ATC-CTC-TAG-3′) (Gibco/BRL, Grand Island, N.Y.) (SEQ ID NO: 123) in 2×hybridization buffer (40 mM HEPES [pH 7.3], 2M NaCl, 2 mg/ml BSA) at 37 ∞C. for 1 h. The primer-oligomer complex was retained by Streptavidin coated SPA beads (SPA, Amersham Life Science Inc., Arlington Height, Ill.), filtered and washed thoroughly with wash buffer (20 mM HEPES [pH 7.3], 15 mM NaCl, 1.5 mM sodium citrate and 0.05% SDS). The amount of the released labeled primer was quantified using a TopCount reader (Packard A991200, Meriden, Conn.).
A general note: SPA uses beads or plates that emit light when radiolabelled molecules are held near them.

Data set [3] can be described thus: ATPase activity, [a-32P]ATP hydrolysis by thin layer chromatography. The data set is classed as biochemical. The procedure:
ATPase activity of the covalent His-NS4A21-32-GSGS-NS33-631 complex (SEQ ID NO: 4) was monitored by direct measurement of [a-^32P]ATP hydrolysis using thin layer chromatography. The enzyme was incubated with 1 mM ATP mixed with [a-^32P]ATP (3000 Ci/mmol, approximately 0.5 mCi per reaction) in a reaction buffer containing 50 mM HEPES [pH 7.3], 10 mM KCl, 0.5 mM DTT, […] bovine serum albumin, fraction V (BSA), 1 mM MgCl2 in the presence or absence of 1 mM polyuridylic acid (poly U) (Pharmacia, Piscataway, N.J.) in a final volume of […]. The reaction was carried out at 37 ∞C. for 1 h and terminated by an addition of […] of 0.5 M EDTA. Half a microliter of the reaction mix was spotted onto a polyethyleneimine-cellulose sheet (SA Scientific Adsorbents Inc., Atlanta, Ga.) and developed by ascending chromatography in 0.375 M potassium phosphate buffer [pH 3.5]. The cellulose sheet was dried and quantified with a Storm 860 PhosphoImager (Molecular Dynamics, Sunnyvale, Calif.).

B1: His-NS4A21-32-GSGS-NS33-631: NS4A 21-32 tethered by GSGS to full-length NS3 residues 3-631, His tag; printed SEQ ID NO: 4 (protein)
chain: MGSSHHHHHHSSGLVPRGSHMGSVVIVGRIILSGSGSITAYSQQTRGLLGCKKTSLTGRDKNQVEGEVQVVSTATQSFLATCVNGVCWTVYHGAGSKTLAGPKGPITQMYTNVDQDLVGWQAPPGARSLTPCTCGSSDLYLVTRHADVIPVRRRGDSRGSLLSPRPVSYLKGSSGGPLLCPSGHAVGIFRAAVCTRGVAKAVDFVPVESMETTMRS
modifications: His tag
With B1, in data set [1], the “autocleavage in the helicase domain during purification” value was “a considerable amount of autocleavage”. The “fold less complex required for similar percentage of unwound products vs full length His-NS31-631/NS4A1-54” value in data set [2] is reported as 10 fold. Further, the “nucleic acid unwinding activity” value in data set [2] (FIG. 6, 37 C, 1 h, 0.5 nM dsRNA) is “proportional to the concentration of enzyme”. The “product released, fold more than equivalent concentration of full length His-NS3/NS4A1-54 complex” value in data set [2] (linear range of the assay, 1-10 pM enzyme) is 5-6 fold. In addition, the “increase of ATP hydrolysis in the presence of poly U” value in data set [3] (1 mM poly U, all enzyme concentrations examined) is reported as 8-13 fold. In addition, the ATPase activity result in data set [3] (FIG. 7, 1 mM ATP, 37 C, 1 h) is “poly U dependent ATPase activity which was proportional to the concentration of the enzyme”. Further, the “ATP hydrolysis in the absence of poly U” value in data set [3] (no poly U) is “minimal”.

The record behind these values is patent US6653127B1, “Single-chain recombinant complexes of hepatitis C virus NS3 protease and NS4A cofactor peptide” (Schering Corporation, priority 1997, dated 2003).
